In article PMC3228903:
Substitutions are numbered along the chain they refer to. Names may count otherwise.

How the values were obtained:
[1] = substrate: NCCc1ccccc1; assay: Steady-state substrate oxidation and pH dependence, WT MAO B; format: biochemical, human; details: other: WT MAO B, pH 7.5
[2] = substrate: NCCC(=O)c1ccccc1N; assay: as above; format: biochemical, human; details: other: WT MAO B, pH 7.5
[3] = substrate: NCc1ccccc1; assay: purified protein, by the assay type; details: pH 7.5
[4] = substrate: NCCc1ccccc1; assay: Steady-state substrate oxidation and pH dependence, Ile199Ala MAO B; format: biochemical, human; details: other: I199A, pH 7.5
[5] = substrate: NCCC(=O)c1ccccc1N; assay: as above; format: biochemical, human; details: other: I199A, pH 7.5
[6] = substrate: NCCc1ccccc1; assay: Steady-state substrate oxidation and pH dependence, Ile199Ala/Tyr326Ala MAO B; format: biochemical, human; details: other: I199A-Y326A, pH 7.5
[7] = substrate: NCCC(=O)c1ccccc1N; assay: as above; format: biochemical, human; details: other: I199A-Y326A, pH 7.5

B1: WT MAO B (Homo sapiens) (protein)
chain: MSNKCDVVVVGGGISGMAAAKLLHDSGLNVVVLEARDRVGGRTYTLRNQKVKYVDLGGSYVGPTQNRILRLAKELGLETYKVNEVERLIHHVKGKSYPFRGPFPPVWNPITYLDHNNFWRTMDDMGREIPSDAPWKAPLAEEWDNMTMKELLDKLCWTESAKQLATLFVNLCVTAETHEVSALWFLWYVKQCGGTTRIISTTNGGQERKFVGGSGQVSERIMDLLGDRVKLERPVIYIDQTRENVLVETLNHEMYEAKYVISAIPPTLGMKIHFNPPLPMMRNQMITRVPLGSVIKCIVYYKEPFWRKKDYCGTMIIDGEEAPVAYTLDDTKPEGNYAAIMGFILAHKARKLARLTKEERLKKLCELYAKVLGSLEALEPVHYEEKNWCEEQYSGGCYTTYFPPGILTQYGRVLRQPVDRIYFAGTETATHWSGYMEGAVEAGERAAREILHAMGKIPEDEIWQSEPESVDVPAQPITTTFLERHLPSVPGLLRLIGLTTIFSATALGFLAHKRGLLVRV
[1]
  Km: 9.4 ± 0.9 µM
  kcat: 2.87 ± 0.05 s⁻¹
  kcat/Km: 300000 ± 33300 M⁻¹ s⁻¹
[2]
  Km: 27 ± 2 µM
  kcat: 1.6 ± 0.0167 s⁻¹
  kcat/Km: 59200 ± 4500 M⁻¹ s⁻¹
[3]; other: WT MAO B
  Km: 150 ± 27 µM
  kcat: 5 s⁻¹
  kcat/Km: 33300 M⁻¹ s⁻¹

B2: Ile199Ala MAO B (Homo sapiens; I199A) (protein)
chain: B1 chain with I199A
[4]
  Km: 40 ± 2 µM
  kcat: 2.05 ± 0.0333 s⁻¹
  kcat/Km: 51700 ± 3330 M⁻¹ s⁻¹
[5]
  Km: 94 ± 8 µM
  kcat: 1.47 ± 0.0333 s⁻¹
  kcat/Km: 15600 ± 1370 M⁻¹ s⁻¹
[3]; other: I199A
  Km: 2133 ± 409 µM
  kcat: 3.8 s⁻¹
  kcat/Km: 1780 M⁻¹ s⁻¹

B3: Ile199Ala/Tyr326Ala MAO B (Homo sapiens; I199A/Y326A) (protein)
chain: B1 chain with I199A, Y326A
[6]
  Km: 703 ± 58 µM
  kcat: 1.83 ± 0.0333 s⁻¹
  kcat/Km: 2670 ± 167 M⁻¹ s⁻¹
[7]
  Km: 289 ± 23 µM
  kcat: 1.07 ± 0.0333 s⁻¹
  kcat/Km: 3670 ± 333 M⁻¹ s⁻¹
